Laboratory results published in the supplement of paper PMC10567573.

B1: IQUB (parent)
chain: EADYEDDSKIAFLMQLQDIQYLTE

Variants of: B1
Assay: protein stability index of a GFP-peptide fusion (GPS, HEK-293T) (PSI 1-6); higher = more stable
Settings: c terminus: a fixed tail appended
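Also: lentivirally expressed fusions sorted by FACS into six bins by GFP to DsRed ratio, PSI derived from sequencing read proportions per bin multiplied by bin number.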

Protein stability index, by site and new letter:
A2: V 2.99 | D 3.53 | G 2.71 | Q 2.36 | C 2.75 | K 2.89 | R 2.44 | F 2.58 | N 3.41 | H 2.51 | Y 2.08 | W 2.17 | M 2.44 | S 2.89 | T 2.93 | P 3.73
D6: W 1.83 | R 2.09 | S 2.7 | E 2.88 | P 2.34 | V 2.17 | A 2.21 | T 2.25 | G 2.38 | Y 1.86
Q15: D 3.1 | H 2.44 | R 2.89 | N 2.84 | I 1.98 | Y 2.09 | S 2.46 | G 3.76 | M 2.36 | K 2.9 | A 2.61 | C 2.09 | F 1.77 | V 1.76 | W 1.78
I19: C 3.96 | L 2.86 | N 3.98 | D 4.94 | H 3.98 | R 3.78 | A 4.17 | P 4.18 | E 4.96 | W 2.64 | G 4.31
D3: T 2.48 | N 2.87 | P 1.98 | A 2.1 | S 2.51 | E 2.88 | F 1.62 | I 1.97 | G 2.77 | K 2.58 | L 2.02 | M 2.03
M14: L 2.32 | Y 2.92 | Q 4.23 | K 3.77 | E 4.06 | T 4.04 | W 2.42 | H 3.96 | S 3.95 | P 4.46 | I 2.6 | D 4.27 | A 3.4 | N 4.26 | G 4.37 | C 3.21
I10: D 4.35 | C 3.34 | Y 2.76 | R 3.82 | G 4.13 | V 3.42 | S 3.91 | F 2.9 | H 4.29 | T 3.5 | E 4.43 | W 3.08 | Q 4.12
L16: E 3.96 | K 4.53 | D 4.58 | P 4.37 | M 3.55 | I 2.95 | V 3.71 | F 3.42 | C 4.06 | G 4.76 | T 3.75 | N 4.33 | W 3.25 | A 4.13 | R 3.99
Y4: C 3.27 | E 4.09 | S 3.65 | D 4.24 | G 3.61 | V 3.18 | N 4.01 | Q 3.78 | T 3.66 | P 4.15 | W 3.42 | K 3.96 | M 3.07 | I 3.21 | L 3.51 | H 3.35
S8: V 2.6 | N 3.53 | F 1.89 | M 2.7 | E 3.21 | P 2.6 | W 2.29 | G 3.46 | Q 3.32 | D 3.62 | L 2.25 | T 3.07
L22: S 3.99 | K 3.79 | T 3.96 | C 3.67 | W 3.07 | P 4.51 | A 4.16 | Y 3.21 | Q 3.83 | R 3.94 | I 3.62 | M 3.4 | D 4.97 | V 3.42 | H 4.07 | G 4.5 | E 4.7 | F 2.91
K9: Y 2.42 | G 2.81 | L 2.58 | A 2.48 | C 1.86 | I 1.83 | Q 3.21 | N 3.08 | S 3.06 | F 2.32 | T 2.64 | H 3.36 | R 2.89 | M 2.47 | V 2.3
A11: H 2.97 | M 2.66 | Y 2.02 | E 3.39 | N 3.77 | F 2.38 | W 2.78 | S 2.94 | L 2.12 | D 4.07 | R 2.83 | T 3.14 | P 3.82 | G 3.41
Q17: R 2.57 | V 2.67 | L 2.68 | N 3.5 | S 2.69 | A 2.5 | H 3.13 | D 3.73 | Y 2.51 | P 3.21 | I 1.76 | E 3.43 | G 3.46 | F 2.68
T23: P 4.17 | N 3.89 | E 4.16 | Q 3.89 | H 3.29 | V 1.92 | W 1.97 | Y 2.21 | S 3.21 | A 2.26 | L 2.12
E5: Q 2.62 | N 3.12 | H 2.62 | G 2.49 | K 2.6 | D 3.42 | F 2.38 | A 2.22 | V 2.38 | S 2.24 | Y 2.27 | T 3.5 | M 2.53 | W 2.29
F12: M 4.05 | K 4.51 | L 2.96 | P 4.75 | S 4.61 | E 5.06 | Y 3.73 | C 4.29 | W 3.18 | H 4.62 | I 3.19 | Q 4.78 | G 4.66 | T 4.94
D18: P 2.83 | K 2.65 | M 1.83 | G 2.92 | R 2.32 | A 1.74 | T 1.72 | H 2.58 | F 2.33 | W 2.2 | L 1.69 | V 2.22
E24: H 2.48 | A 2.91 | P 3.29 | M 1.86 | I 1.67 | S 2.71 | L 1.56 | T 2.54 | C 2.33 | Y 2.36 | W 2.45 | F 1.92 | V 1.81 | D 3.32 | R 2.07 | G 2.89
D7: M 2.03 | P 2.67 | K 2.38 | S 2.47 | W 2.33 | L 1.89 | E 3.14 | A 2.48 | I 1.93 | Q 3.2 | F 1.17 | T 2.19 | R 2.87
Q20: R 3.67 | M 2.48 | N 3.22 | C 2.2 | K 3.46 | D 3.86 | L 1.69 | T 3.05 | S 3.61 | Y 1.62 | V 2.19 | E 3.98 | A 2.5 | P 3.45
Y21: I 3.19 | A 3.81 | H 3.55 | S 3.52 | P 3.77 | D 4.45 | F 2.78 | M 3.45 | R 2.99 | C 3.74 | V 3.51 | E 4.21 | K 3.51 | G 4.07 | Q 3.64
E1: F 1.99 | W 2.17 | A 2.95 | H 3.29 | P 2.6 | D 3.56 | R 2.44 | T 2.47 | G 2.79 | S 2.65 | K 2.27 | N 2.85 | Y 2.23 | V 1.74
L13: G 4.29 | Q 4.34 | C 3.5 | M 3.26 | I 2.77 | H 4.15 | W 3.51 | E 4.54 | K 4.11 | T 4.3 | F 2.85 | N 4.55 | A 4.02 | S 4.41
